Target: T1, epithelial sodium channel (ENaC) (Xenopus laevis, UniProt P51167+P51169+P51171)
T1 construct: expressed in transfected cells; host or cells: Xenopus laevis oocytes (co-expression with Sgk)
T1 sequence (P51167 1-632): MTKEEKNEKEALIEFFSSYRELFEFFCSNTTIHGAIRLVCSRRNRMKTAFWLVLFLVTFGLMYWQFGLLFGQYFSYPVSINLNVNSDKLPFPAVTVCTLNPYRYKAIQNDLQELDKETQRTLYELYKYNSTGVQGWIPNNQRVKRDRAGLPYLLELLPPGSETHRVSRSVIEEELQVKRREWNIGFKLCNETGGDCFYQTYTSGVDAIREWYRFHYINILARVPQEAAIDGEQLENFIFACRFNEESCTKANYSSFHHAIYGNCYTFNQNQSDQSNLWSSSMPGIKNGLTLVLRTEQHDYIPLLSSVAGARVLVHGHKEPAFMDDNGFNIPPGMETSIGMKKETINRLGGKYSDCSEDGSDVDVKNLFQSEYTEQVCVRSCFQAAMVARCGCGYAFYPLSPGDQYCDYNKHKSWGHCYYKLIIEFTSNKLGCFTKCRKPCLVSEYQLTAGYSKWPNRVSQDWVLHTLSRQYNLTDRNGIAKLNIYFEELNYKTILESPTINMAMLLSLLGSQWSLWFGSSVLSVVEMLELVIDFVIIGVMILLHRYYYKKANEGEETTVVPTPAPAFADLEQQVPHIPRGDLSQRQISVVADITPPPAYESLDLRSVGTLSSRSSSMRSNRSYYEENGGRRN
T1 sequence (P51169 1-647): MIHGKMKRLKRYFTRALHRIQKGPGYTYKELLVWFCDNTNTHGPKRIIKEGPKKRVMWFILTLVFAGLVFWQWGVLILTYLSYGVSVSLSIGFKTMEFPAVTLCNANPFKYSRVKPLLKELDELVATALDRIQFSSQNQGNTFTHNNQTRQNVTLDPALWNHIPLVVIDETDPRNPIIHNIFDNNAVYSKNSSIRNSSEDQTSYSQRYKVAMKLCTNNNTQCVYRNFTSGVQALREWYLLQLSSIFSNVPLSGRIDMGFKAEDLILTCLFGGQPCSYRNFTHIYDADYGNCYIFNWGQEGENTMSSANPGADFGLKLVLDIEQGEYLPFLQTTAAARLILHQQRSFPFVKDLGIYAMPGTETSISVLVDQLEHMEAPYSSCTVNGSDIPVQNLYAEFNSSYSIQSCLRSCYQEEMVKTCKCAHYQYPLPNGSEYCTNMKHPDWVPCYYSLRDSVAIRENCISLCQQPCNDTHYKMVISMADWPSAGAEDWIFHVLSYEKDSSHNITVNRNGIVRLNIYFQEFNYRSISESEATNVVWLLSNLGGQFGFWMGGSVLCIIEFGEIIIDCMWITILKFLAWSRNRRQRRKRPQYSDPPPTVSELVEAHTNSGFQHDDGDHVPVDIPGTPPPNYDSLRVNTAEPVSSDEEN
T1 sequence (P51171 1-660): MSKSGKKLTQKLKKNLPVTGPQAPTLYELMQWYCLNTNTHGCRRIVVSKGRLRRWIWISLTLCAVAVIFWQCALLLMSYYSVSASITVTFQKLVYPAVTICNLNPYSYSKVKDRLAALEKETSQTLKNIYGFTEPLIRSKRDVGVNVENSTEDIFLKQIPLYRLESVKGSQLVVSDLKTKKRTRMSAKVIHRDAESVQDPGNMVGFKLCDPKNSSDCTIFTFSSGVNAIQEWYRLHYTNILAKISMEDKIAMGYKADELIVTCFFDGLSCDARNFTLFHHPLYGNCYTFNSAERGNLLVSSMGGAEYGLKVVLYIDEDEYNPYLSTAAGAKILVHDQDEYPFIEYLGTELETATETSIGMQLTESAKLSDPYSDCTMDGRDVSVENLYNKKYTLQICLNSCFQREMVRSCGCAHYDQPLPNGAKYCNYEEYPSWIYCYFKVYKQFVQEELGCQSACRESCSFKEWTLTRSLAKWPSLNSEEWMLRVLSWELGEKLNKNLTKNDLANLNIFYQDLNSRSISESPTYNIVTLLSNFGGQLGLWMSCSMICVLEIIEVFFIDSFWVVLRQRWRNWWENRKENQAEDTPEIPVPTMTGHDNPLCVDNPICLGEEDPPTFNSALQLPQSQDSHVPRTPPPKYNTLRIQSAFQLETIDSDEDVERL
Assay: Epithelial sodium channel activity after co-expression in oocytes
Type: cell-based
Excerpt: Identification of Sgk-interacting proteins that may connect Sgk to the cellular stress response. Using the yeast two-hybrid genetic screening strategy discussed earlier, we also identified IF-1, which is a negative regulator of the mitochondrial F1 ATPase pump, as an Sgk-interacting protein. […] Furthermore, cell lysates containing endogenous Sgk induced in response to glucocorticoids, serum, hyperosmotic stress or UV radiation interacted specifically with the GST-IF1 fusion protein but not with GST alone, as assessed by anti-sgk immunoblotting. […] We disclose that in response to genotoxic or hormonal stress cues, high levels of Sgk protein are produced, which then binds to the IF1 ATPase inhibitor, thus activating the mitochondrial F1 ATPase. We have also shown that Sgk activates the epithelial sodium channel (ENaC) after their co-expression in Xenopus Laevis oocytes. […] These observations indicate that one function of Sgk is to regulate cell volume following osmotic stress of the cells. […] Intriguingly, the cytoplasmic domains of the ENaC beta subunit contain amino acid sequences surrounding a serine that indicate it is an endogenous substrate for Sgk. Previous studies have shown that both the beta and gamma subunits of EnaC are phosphorylated (Shimkets, R. A.,et al. 1998. Proc Natl Acad Sci USA 95:3301–5).

basal ENaC activity: inhibiting the basal EnaC activity
B1: K127M: Sgk with lysine 127 in the ATP binding domain substituted with methionine; kinase dead (protein, UniProt O00141 1-431, looked up, variant K127M)
Serine/threonine-protein …: MTVKTEAAKGTLTYSRMRGMVAILIAFMKQRRMGLNDFIQKIANNSYACKHPEVQSILKISQPQEPELMNANPSPPPSPSQQINLGPSSNPHAKPSDFHFLKVIGKGSFGKVLLARHKAEEVFYAVMVLQKKAILKKKEEKHIMSERNVLLKNVKHPFLVGLHFSFQTADKLYFVLDYINGGELFYHLQRERCFLEPRARFYAAEIASALGYLHSLNIVYRDLKPENILLDSQGHIVLTDFGLCKENIEHNSTTSTFCGTPEYLAPEVLHKQPYDRTVDWWCLGAVLYEMLYGLPPFYSRNTAEMYDNILNKPLQLKPNITNSARHLLEGLLQKDRTKRLGAKDDFMEIKSHVFFSLINWDDLINKKITPPFNPNVSGPNDLRHFDPEFTEEPVPNSIGKSPDSVLVTASVKEAAEAFLGFSYAPPTDSFL

— patent US7087392B2, “Antiproliferative SgK reagents and methods” (The Regents of the University of California, priority 1999, dated 2006)
